For this experiment, the target named is T1, Aβ42 oligomers (UniProt P05067 672-713).
T1 construct: domain: Aβ42; Oligomeric state
Put plainly: ELISA on coated Aβ42 oligomers, His-tagged polypeptide at 1 µg per well. A general note: An ELISA detects its analyte on a solid surface through an enzyme-linked reagent.

Our source for the OD450 values is patent US20190330271A1 (HANGZHOU WISDOM PANACEA BIOLOGICS, published 2019).

T1 sequence (P05067 672-713 limits assumed): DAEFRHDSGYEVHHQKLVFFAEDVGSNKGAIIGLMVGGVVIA
Procedure: 100 μL of monomers, oligomers or fibers of Aβ42, PrP, amylin, insulin or lysozyme were respectively coated onto a 96-well ELISA microplate at 1 μg/well, BSA was used as a negative control. The plate were then placed at 37° C. for 2 h, blocked with 200 μL/well of 3% BSA at 37° C. for 2 h, and washed 3 times with PBS. 100 μL of histidine-tagged ZR polypeptide solution was added, and the plate was incubated at room temperature for 1 h, and then washed 3 times with PBS containing 0.1% Tween-20. 100 μL of HRP-linked antibody 9E10 which can recognize the histidine tag was added to each well, and the plate was incubated at room temperature for 1 h, and then washed 3 times with PBS containing 0.1% Tween-20. 100 μL of TMB was added to each well, and the plate was placed at 37° C. for 20 min. Then, 50 μL of 1 mmol/L sulfuric acid was added to each well to terminate the reaction, and OD450 values were measured using a microplate reader. The above procedure was repeated for 3 times under the same condition.

Molecule SAFQNKR (not shown: histidine tag) [ZR4-FN/AQ (SEQ ID NO: 4), histidine-tagged] returned an OD450 of 0.47.

B1: ZR + K (SEQ ID NO: 6), histidine-tagged (peptide)
peptide: SFFNNKRK
notes: ZR derivative with a Lys added after Arg7; not shown: histidine tag
Turning to B1, the OD450 came out at 0.56.

B2: ZR4-ΔN (SEQ ID NO: 3), histidine-tagged (peptide)
peptide: SFFNKR
notes: ZR derivative with one Asn deleted; not shown: histidine tag
As to B2, the OD450 was 0.49.

B3: ZR + N (SEQ ID NO: 5), histidine-tagged (peptide)
peptide: SFFNNNKR
notes: ZR derivative with one more Asn; not shown: histidine tag
B3 gave an OD450 of 0.54.
